Source: patent US20240200091A1, “USE OF PROTOPORPHYRINOGEN OXIDASE” (BEIJING DABEINONG BIOTECHNOLOGY CO., LTD., priority 2021, published 2024)

B1: PPO13A: nucleotide sequence encoding microbial protoporphyrinogen oxidase PPO13 (SEQ ID NO:13), Arabidopsis thaliana/soybean common codon usage bias (nucleic acid)
DNA: ATGGCTAAAGCTCTTTTCCTGTACTCATCTAGAGAAGGACAAACAAAGAAGATTCTTCATTACATAGACGAGAAGTTAACTGGGTTTGAGTGTGAACTCGTTGATTTGCACAATGTCGAAACTATTGATTTTTCTCAGTATGATAGAGTCTTAATTGGAGCGTCCATACGATATGGTCATCTCAACAAGAAATTATATCAGTTTATCGACCGTAACCTGAACCAGCTAGAGCAAAGCAAGGTAGCTTTCTTCTGCGTGAATCTCACCGCACGGAAAGAGGATCAAGGAAAAGATACTCCTGAAGGCTCAGCTTACATAAGGAAGTTTCTTATCAAATCGCCTTGGAAACCGACATTGATTGGTGTTTTCGCAGGTGCACTTTACTATCCAAGATATGGGTGGTTTGATAAAACAATGATCAAATTCATCATGAGTATGACTGGTGGAGAAACCGACACGACCAAGGAAGTTGAGTACACAAATTGGGAAAAAGTGGCCTTGTTTGCTGATAAGTTCAAGGAGCTATGA
modifications: The nucleotide sequence of PPO13A
B2: PPO10A: nucleotide sequence encoding microbial protoporphyrinogen oxidase PPO10 (SEQ ID NO:10), Arabidopsis thaliana/soybean common codon usage bias (nucleic acid)
DNA: ATGAAAGCTCTCTTTCTGTACTCGTCTCAAGAAGGACAGACAAGGAAGATTATAGAGAGAATCGCCCAGCAAATGCCGGAGTATGATTGTGATATTCAAGATCTTCATCAAGTAAGCGACATTGCATTAGCTGATTATGACAAGATCCTAATAGGGGCCAGTATCCGATATGGAAGATTGAATGATAAACTATATCAATTTATTCAGAGATATCTTCCCGATCTCCGCTCCAACAAAGCAGCTTTCTTCTGCGTCAATCTTACGGCGAGAAAGGAAGAACAAGGAAAAGACACCCCAGAAGGTTCTGTTTACATCCAGACTTTCTTGAAGAAATCACCATGGCAACCTGAGAGGATTGCAGTGTTTGCTGGTGCTCTTTACTATCCTCGTTACAGATGGTTTGATAAGATGATGATTCGGTTAATAATGACTTTGACCGGCGGTGAAACTGATACATCAAAAGAAGTTGAGTACACAAATTGGAACAAGGTTTCTCAGTTTGCGGAGCAGTTCCGTAACTGGTGA
modifications: The nucleotide sequence of PPO10A
B3: PPO11A: nucleotide sequence encoding microbial protoporphyrinogen oxidase PPO11 (SEQ ID NO:11), Arabidopsis thaliana/soybean common codon usage bias (nucleic acid)
DNA: ATGCAAAAAGCTCTTTTCCTCTACAGTTCAAGAGAAGGACAAACAAAGAAAATACTCAACTACATCAAGGAAGAACTATCAGAGTTTGATTGTGAGCTTGCTGATCTTCATCAGATTGAAGATATTGATTTAGCCTTGTATGATCGAGTATTAATAGGCGCAAGCATCCGGTATGGTCACTTGAACAAAAAGCTTTATCAGTTTATTGAGAAGCATGCTGAGCAACTTGCGCTGGCAAAAGCAGCTTTCTTCTGCGTGAATCTCACTGCAAGGAAAGAGGCTCAAGGAAAAGATACTCCGGAAGGTTCTGTTTACATAAAGACGTTTCTGTCCAAGTCTGCTTGGCAACCAAAGTTGATTGGAGTTTTTGCTGGTGCCCTATACTATCCTCGTTACCATTTCTTTGACAAAGTGATGATTAGATTCATCATGTCTTTAACCGGGGGAGAAACTGACACATCAAAAGAAGTTGAGTATACAAATTGGCAGAAAGTCTCGTTGTTTAGTGACAATTTCAAGAAGATGTGA
modifications: The nucleotide sequence of PPO11A

system: Arabidopsis thaliana T1 plants; assay: flumioxazin tolerance of transgenic Arabidopsis thaliana T1 plants (spray, grade of pesticide damage); format: in vivo; conditions: flumioxazin 60 g ai/ha (1×), 7 DAT, number of plants of 24 per genotype, grades
In short: (§1)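 T1 Arabidopsis (PPO constructs; glufosinate-selected) + vector and WT controls, n=24/genotype, d18 post-sowing. Spray 1×/higher field rate or water: saflufenacil 25/100, sulfentrazone 450/900, flumioxazin 60/240, oxyfluorfen 180/720 g ai/ha. Score 7 DAT, grades 0–3 by injured leaf area.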

Molecule	The grade of pesticide damage/plant: grade 0 [plant]	The grade of pesticide damage/plant: grade 1 [plant]	The grade of pesticide damage/plant: grade 2 [plant]	The grade of pesticide damage/plant: grade 3 [plant]
B1	24	0	0	0
B2	24	0	0	0
B3	24	0	0	0

same assay, conditions: flumioxazin 240 g ai/ha (4×), 7 DAT, number of plants of 24 per genotype, grades

Molecule	The grade of pesticide damage/plant: grade 0 [plant]	The grade of pesticide damage/plant: grade 1 [plant]	The grade of pesticide damage/plant: grade 2 [plant]	The grade of pesticide damage/plant: grade 3 [plant]
B1	19	5	0	0
B2	24	0	0	0
B3	20	4	0	0

system: Arabidopsis thaliana T1 plants; assay: sulfentrazone tolerance of transgenic Arabidopsis thaliana T1 plants (spray, grade of pesticide damage); format: in vivo; conditions: sulfentrazone 450 g ai/ha (1×), 7 DAT, number of plants of 24 per genotype, grades
In short: as §1

Molecule	The grade of pesticide: grade 0	The grade of pesticide: grade 1	The grade of pesticide: grade 2	The grade of pesticide: grade 3
B1	24	0	0	0
B2	24	0	0	0
B3	24	0	0	0

same assay, conditions: sulfentrazone 900 g ai/ha (2×), 7 DAT, number of plants of 24 per genotype, grades

Molecule	The grade of pesticide: grade 0	The grade of pesticide: grade 1	The grade of pesticide: grade 2	The grade of pesticide: grade 3
B1	23	1	0	0
B2	20	4	0	0
B3	19	5	0	0

system: Arabidopsis thaliana T1 plants; assay: saflufenacil tolerance of transgenic Arabidopsis thaliana T1 plants (spray, grade of pesticide damage); format: in vivo; conditions: saflufenacil 25 g ai/ha (1×), 7 DAT, number of plants of 24 per genotype, grades
In short: as §1

Molecule	The grade of pesticide damage/plant: grade 0 [plant]	The grade of pesticide damage/plant: grade 1 [plant]	The grade of pesticide damage/plant: grade 2 [plant]	The grade of pesticide damage/plant: grade 3 [plant]
B1	24	0	0	0
B2	24	0	0	0
B3	24	0	0	0

same assay, conditions: saflufenacil 100 g ai/ha (4×), 7 DAT, number of plants of 24 per genotype, grades

Molecule	The grade of pesticide damage/plant: grade 0 [plant]	The grade of pesticide damage/plant: grade 1 [plant]	The grade of pesticide damage/plant: grade 2 [plant]	The grade of pesticide damage/plant: grade 3 [plant]
B1	0	24	0	0
B2	0	24	0	0
B3	0	24	0	0

system: Arabidopsis thaliana T1 plants; assay: oxyfluorfen tolerance of transgenic Arabidopsis thaliana T1 plants (spray, grade of pesticide damage); format: in vivo; conditions: oxyfluorfen 180 g ai/ha (1×), 7 DAT, number of plants of 24 per genotype, grades
In short: as §1

Molecule	The grade of pesticide damage/plant: grade 0 [plant]	The grade of pesticide damage/plant: grade 1 [plant]	The grade of pesticide damage/plant: grade 2 [plant]	The grade of pesticide damage/plant: grade 3 [plant]
B1	24	0	0	0
B2	24	0	0	0
B3	24	0	0	0

same assay, conditions: oxyfluorfen 720 g ai/ha (4×), 7 DAT, number of plants of 24 per genotype, grades

Molecule	The grade of pesticide damage/plant: grade 0 [plant]	The grade of pesticide damage/plant: grade 1 [plant]	The grade of pesticide damage/plant: grade 2 [plant]	The grade of pesticide damage/plant: grade 3 [plant]
B1	18	6	0	0
B2	20	4	0	0
B3	21	3	0	0
